Laboratory results taken from US20100261660A1 (published 2010).
Residue numbers refer to the chain shown, from its start. Values belong to the binder of their own block, whether it stands above or below them.

How the values were obtained:
[1] = target: T1, Soluble CTLA-4-Ig (extracellular domain of human CTLA-4 fused to the Fc portion of human IgG1) (human, UniProt P16410 36-161, FITC-conjugated in the FACS binding assays); assay: competitive FACS on transfected cells, FITC-sCTLA-4-Ig with biotin-sCD28-Ig; grade 0-2 of CTLA-4/CD28 ratio vs WT hB7-1
T1 construct: extracellular domain; bought from R&D Systems; also called sCTLA-4-Ig; CTLA-4-Ig Fc; not shown: Fc portion of human IgG1
T1 sequence (P16410 36-161): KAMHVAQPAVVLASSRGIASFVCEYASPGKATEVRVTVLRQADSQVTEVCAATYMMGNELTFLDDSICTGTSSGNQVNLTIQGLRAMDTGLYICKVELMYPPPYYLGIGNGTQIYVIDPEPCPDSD

[2] = target: T2, Soluble CD28-Ig (extracellular domain of human CD28 fused to the Fc portion of human IgG1) (human, UniProt P10747 19-152, biotin-conjugated (NHS-biotin) in the FACS binding assays); assay: competitive FACS on transfected cells, biotin-sCD28-Ig with FITC-sCTLA-4-Ig; grade 0-2 of CD28/CTLA-4 ratio vs WT hB7-1
T2 construct: extracellular domain; bought from R&D Systems; also called sCD28-Ig; CD28-Ig Fc; not shown: Fc portion of human IgG1

- Binding Score [1]: 1
B1: Round 2 CTLA4BP 2x1-e2 (ligand)
chain: VIHVTKEVKEVATLSCGHNVSDEELAQTRIHWQKEKKMVLTMMSGDMNIWPEYKNRTIFDITNNLSIVILALRPSDEGTYECVVLKYEKDAFKREHLAEVTLSVKADFPTPSISDFEIPPSNIRRIICSTSGGFPEPHLSWLENGEELNAINTTVSQDPGTELYTVSSKLDFNMTTNHSFMCLIKYGHLRVNQTFNWNTPKQEHFPDNLLPSAITLISANGIFVICCLTYCFAPRCRERRRNERLRRESIHPV

- Binding Score [1]: 2
B2: Round 2 CTLA4BP-5x4-1f (ligand)
chain: VIHVTKEVKEVATLSCGHNVSVEELAQTRIHWQKEKKMVLTMMSGDMNIWPEYKNRTIFDITNNLSIVILALRPSDEGTYECVVLKYEKDAFKREHLAEVMLSVKADFPTPSISDFEIPTSNIRRIICSTSGGFPEPHLFWLENGEELNAINTTVSQDPETELYTVSSKLDFNMTTNHSFMCLIKYGHLRVNQTFNWNTPKQEHFPDNLLPSWAITLISVNGIFVICCLTYCFAPRCRERRRNERLRRESVCPV

- Binding Score [1]: 2
B3: Round 2 CTLA4BP-5x2-11d (ligand)
chain: B2 chain with S114T, T120P, N177D, H178R, M181V, V220A, R241K, R242S, R245T, C252R

- Binding Score [1]: 2
B4: Round 2 CTLA4BP-5x4-12c (ligand)
chain: B2 chain with T120P, V220A, C232R, R241K, R242S, R245T, C252R
notes: residues 1-34 left out as the signal peptide; also called CTLA-4BP 5×4-12c; clone R2 CTLA-4BP 5×4-12c

- Binding Score [1]: 2
B5: Round 2 CTLA4BP-5x6-9d (ligand)
chain: B2 chain with F140S, T176A, M181V, C252R

- Binding Score [1]: 2
B6: Round 2 CTLA4BP-5x8-1f (ligand)
chain: B2 chain with S114T, T120P, T130A, T165A, K185R, R241K, R242S, C252R

- Binding Score [1]: 2
B7: Round 2 CTLA4BP-5x5-6e (ligand)
chain: B2 chain with S114T, T120P, F140S, N152S, P200T, V220A, Y231H, R241K, C252R

- Binding Score [1]: 2
B8: Round 2 CTLA4BP-5x9-12c (ligand)
chain: B2 chain with S114T, T120P, F140S, V155A, R241K, R242S, C252R

- Binding Score [1]: 2
B9: Round 2 CTLA4BP-5x5-2e (ligand)
chain: B2 chain with H18L, T120P, F140S, T165A, R245T, C252R

- Binding Score [1]: 2
B10: Round 2 CTLA4BP-5x4-11d (ligand)
chain: VIHVTKEVKEVATLSCGLNVSVEELAQTRIHWQKEKKMVLTMMSGDMNIWPEYKNRTIFDITNNLSIVILALRPSDEGTYECVVLKYDKDAFKREHLAEVTLSVKADFPTPSISDFEIPPSNIRRIICSTSGGFPEPHLSWLENGEELNAINTTVSQDPETELYTVSSKLDFNMTANHSFVCLIKYGHLRVNQTFNWNTPKQEHFPDNLLPSWAITLISVNGIFVICCLTYRFAPRCRERKSNERLRRESVRPV

- Binding Score [1]: 1
B11: Round 2 CTLA4 A-B4-6 (ligand)
chain: ITPKSVTKRVKETVMLSCDYNTSTEELTSLRIYWQKDSKMVLAILPGKVQVWPEYKNRTITDMNDNPRIVILALRLSDKGTYTCVVQKNENGSFRREHLTSVTLSIRADFPVPTINDLGNPSPNIRRLICSTSGGFPRPHLYWLENGEELNATNTTLSQDPETKLYMISSELDFNMTSNHSFLCLVKYGDLTVSQTFYWQESKPTPSANQHLTWTIIIPVSAFGISVIIAVILTCLTCRNAAIRRQRRENEVEMQSCSQSP

- Binding Score [1]: 1
B12: Round 2 CTLA4 A-F1-6 (ligand)
chain: B11 chain with N21S, T103R, S105M

- Binding Score [1]: 1
B13: Round 2 CTLA4 A-E2-6 (ligand)
chain: B11 chain with K79S, T103R, S105M, S158P

- Binding Score [1]: 1
B14: Round 2 CTLA4 A-F10-1 (ligand)
chain: B11 chain with F197L

- Binding Score [1]: 1
B15: Round 2 CTLA4 A-H3-6 (ligand)
chain: GISQVTKSVKEMAALSCDYNISIDELARMRIYWQKDQQMVLSIISGQVEVWPEYKNRTFPDIINNLSLMILALRLSDKGTYTCVVQKNENGSFRREHLTSVTLSIRADFPVPSINDLGNPSPNIRRLICSTSGGFPRPHLYWLENGEELNATNTTLSQDPETKLYMISSELDFNMTSNHSFLCLVKYGDLTVSQTFYWQESKPTPSANQHLTWTIIIPVSAFGISVIIAVILTCLTCRNAAIRRQRRENEVEMQSCSQSP

- Binding Score [2]: 1
B16: Round 1 (R1) CD28BP-71 (ligand)
chain: ITPKSVTKRVKETVMLSCDYNTSTEELTSLRIYWQKDSKMVLAILPGKVQVWPEYKNRTITDMNDNPRIVILALRLSDSGTYTCVIQKPVLKGAYKLEHLASVRLMIRADFPVPTINDLGNPSPNIRRLICSTSGGFPRPHLYWLENGEELNATNTTLSQDPETKLYMISSELDFNMTSNHSFLCLVKYGDLTVSQTFYWQESKPTPSANQHLTWTIIIPVSAFGISVIIAVILTCLTCRNAAIRRQRRENEVEMQSCSQSP
notes: also called R1clone71; Clone 71

- Binding Score [1]: 1
B17: Round 2 CTLA4BP 2x2-f3 (ligand)
chain: VIYVTKEVKEVATLSCGHNVSVEELAQTRIYWQKEKKMVLIMMSGDMNIWPEYKNRTIFDITNNLSIVILALRPSDEGTECVVLKYEKDAFKREHLAEVTLSVKADFPTPSISDFEIPPSNIRRIICSTSGGFPEPHLSWLENGEELNAINTTVSQDPGTELYTVSSKLDFNMTTNHSFMCLIKYGHLRVNQTFNWNTPKQEHFPDNLLPSWAITLISVNGIFVICCLTYCFAPRCRERRRNERLRRESVCPV

- Binding Score [1]: 1
B18: Round 2 CTLA4BP 2x4-g9 (ligand)
chain: VIHVTKEVKEVATLSCGHNVSVEELAQTRIYWQKDKKMVLTMMSGDMNIWPEYKNQTIFDITNNLSIVILALRPSDEGTYECVVLKYEKDAFKQEHLAEVMLSVKADFPTPSISDFEIPPSNIRRIICSTSGGFPEPRLAWMEDGEELNAISTTVSQDPGTELCTVSSKLDFNMTTNHSFMCLIRYGHLRVNQTFNWNTPKQEHFPDNLLPSWAITLISVKGIFVICCLTYCFAPRGRERKSNGRLRRESVHPV

- Binding Score [1]: 1
B19: Round 2 CTLA4BP 2x1-c9 (ligand)
chain: VIHVTKEVKEVATLSCGHNVSAEELAQTRIYWQKEKKMVLTMMSGDMNIWPEYKNRTIFDITNNLSIVILALRPSDEGTYECVVLEYEKDAFKREHLAEVMLSVKADFPTPSITDFEIPTSNIRRIICSTSGGFPEPRLAWMEDGEELNAISTTASQDPETELYTVSSKLDFNMTTNHSFMCLIKYGHLRVNQTFNWNTPKQEHFPDNLLPSWAITLISVNGIFVICCLTHCFAPRCRERRRNERLRRESVCPV

- Binding Score [1]: 2
B20: Round 2 CTLA4BP-5x2-10c (ligand)
chain: VIHVTKEVKEVATLSCGHNVSVEELAQTRIHWQKEKKMVLTMMSGDMNIWPEYKNRTIFDITNNLSIVILALRPSDEGTYECVVLKYEKDAFKREHLAEVMLSVKADFPTPSITDFEIPPSNIRRIICSTSGGFPEPHLSWLENGEELNAINTTVSQDPETELYTVSSKLDFNMTANHSFVCLIKYGHLRVNQTFNWNTPKQEHFPDNLLPSWAITLISVNGIFVICCLTYCFAPRCRERRNETLRRESVRPV

- Binding Score [1]: 0
B21: Round 2 CTLA4 A-C9-9 (ligand)
chain: SGITPKSVTKRVKETVMLSCDYSTSTEELTSLRIYWQKDSKMVLAILPGKVQVWPEYKNRTFPDIINNLSLMILALRLSDRGTYTCVVQKNENGSFRREHLTSVTLSIRADFPVPSITDIGHPAPNVKRIRCSASGGFPEPRLAWMEDGEELNAVNTTVDQDLDTELYSVGSELDFNVTNNHSIVCLIKYGELSVSQIFPWSKPKQEPPIDQLPFWVIIPVSGALVLTAVVLYCLARRHVARWKRTRRNEETVGTERLSPIYLGSAQSSG

- Binding Score [1]: 1
B22: Round 2 CTLA4 A-H4-5* (ligand)
chain: ITPKSVTKRVKETVMLSCDYSTSTEELTSLRIYWQKDSKMVLAILPGKVQVWPEYKNRTITDMNDNPRIVILALRLSDKGTYTCVVQKNENGSFRREHLTSVTLSIRADFPVPSITDIGHPAPNVKRIRCSASGGFPEPRLYWLENGEELNATNTTVSQDPGTELYMISSELDFNVTNNHSIVCLIKYGELSVSQIFPWSKPKQEPPIDQLPFWVIIPVSGALVLTAVVLYCLACRHVARWKRTRRNEETVGTERLSPIYLGSAQSSG

- Binding Score [2]: 2
B23: Round 2 CD28BP-8 (ligand)
chain: ITPKSVTKRVKETVMLSCDYNTSTEELTSLRIYWQKDSKMVLAILPGKVQVWPEYKNRTITDMNDNPRIVILALRLSDSGTYTCVIQKPVLKGAYKLEHLASVRLMIRADFPVPSITDIGHPAPNVKRIRCSASGGFPEPRLAWMEDGEELNAVNTTVDQDLDTELYSVSSELDSNVTNNHSIVCLIKYGELSVSQIFPWSKPKQEPPIDQLPFWVIIPVSGALVLTAVVLYCLACRHVARWKRTRRNEETVGTERLSPIYLGSAQSSG

- Binding Score [1]: 0
B24: Round 2 CTLA4BP 2x3-h2 (ligand)
chain: VIHVTKEVKEVATLSCGHNVSVEELAQTRIYWQKEKKMVLTMMSGDMNIWPEYKNRTIFDITNNLSIVILALRPSDEGTYECVVLKYEKDAFKREHLAEVMLSVKADFPTPSISDFEIPPSNIRRIICSTPGGFPEPRLAWMEDGEELNAISTTVSQDPGTELYAVSSKLDFNMTTNHSFMCLIKYGHLRVNQTFNWNTTKQEHFPDNLLPSWAITLISVKGIFVICCLTYCFAPRWRERKSNERLRRESVRPV

- Binding Score [1]: 1
B25: Round 1 CTLA4BP-7 (ligand)
chain: VIHVTNEVKEVATLSCGHNVSGEELAQTRIYWQKEKKMVLTMMYGDMNIWPEYKNRTIFDITNNLSIVILALRPSDEGTYECVVLKYEKDAFKREHLAEVMLSVKADFPTPSITDFEIPPSNIRRIICLTSGGFPEPRLAWMKDGEELNAISTTVSQDPGTELYAVSSKLDFNMTTNHSFMCLIKYGHLRVNQTFSWNTPKQEHFPDNLLPSWAITLISVNGIFVICCLTYCFAPRCRERRRNERLRRESVRPV
notes: also called R1-7; R1 CTLA-4BP-7
